B1: CrtJ (natural protein, Rhodobacter capsulatus, UniProt P26167 1-469, looked up)
chain: MTSDGSFLMRREALQRVSPDLLADIVTSACDIALVVSPGRVVESVMVNPQFGSAERFAAWQGARLSQLFSPESAQKLENRLADGPEPGRSLQLELTHAADAFTLPVRYTITRSGEDGTLLLIGRDMQPLAEVQQQLVKAQLALERDYEAQREIETRYRVLLEAHPAPLLIVSMSTGRIADLNLAAAAMIGATRAELIDAPVGQELDGRRRGEFLENLAKIAGSDPLGAVELTIRRSRRKVTVTATLFRAAGDRLLLCRLGEAEARRTRVDDTVELSERLFLKGIDAMVFLDADGTIRAANDAFLYLTDAGSAALVQGRSFADFLSRGAVDLNVLLDNVKRIGHLRHYVTRLNTDFSGQVTVELSATLFHDRATPTIALVIRDSNLADATRIMPGMASNEGLRNVMQMVGYATLRDIVSETTEIIEKMCIETALELTGNNRVAAAELLSLSRQSLYVKLRKFGLLSKDAE
notes: CrtJ, aerobic repressor of photosystem genes, Rhodobacter capsulatus (strain SB1003 is the wild-type parent); calculated molecular mass of the dimer 101.0 kDa; also called CrtJ2; CrtJ dimer; source: E. coli BL21(DE3) bearing pSUMO-CrtJ, overexpressed as SUMO-tagged protein, purified according to previous studies

Key:
[1] = system: CrtJ;AerR (Rhodobacter capsulatus;Rhodobacter capsulatus); assay: EMSA; conditions: EMSA with 10 nM bchC DNA, oxidizing (O2) or reducing (10 mM DTT), Hill fit; buffer, salt, pH and temperature not in the material (reported previously, ref. 20)
[2] = molecular target: the molecule itself; assay: SEC-MALS; size exclusion chromatography coupled with multiangle light scattering (Wyatt), analysed with ASTRA 6, BSA for calibration; CrtJ alone and CrtJ with added AerR
[3] = molecular target: B1; assay: as above; conditions: both partners purified

Molecule: bchC promoter EMSA probe, 325 bp
- binding signal (fold higher affinity than CrtJ alone) [1]: 6

Molecule: B1
- stoichiometry N [2]: 2

B2: AerR (natural protein)
chain: MNGVAELQTVLVNRMVELATGPELGAMDLLFDEFRAAHVPVEEMATHYIPEAARQIGAAWDSDRIGFAQVTIAISRLQELLHALQTLVTADSVGCANGATVLLIVPPGEQHTLGALIVAMELRRRGVSVRIVFAPGLSDLSRLMATTRFDAALITVGSMDRVEICAKLVKTLSSLTKGRMRVAIGGAIVSQRAEALARTGADLVTNDLSLVISEFSLV
- stoichiometry N [3]: 0.5 AerR per CrtJ chain (1:2)

From PMC5362033, “The Vitamin B12-Dependent Photoreceptor AerR Relieves Photosystem Gene Repression by Extending the Interaction of CrtJ with Photosystem Promoters” (mBio, 2017)
